The results in this text go back to the DeepSol protein solubility set.

The data set can be described thus: soluble on expression in E. coli; label from the status in PepcDB or PDB records.
“MNSEQIYHVDFKQSKRIKSFHYAGGLFQLTSDGVIFVGKDKDNNELPPRWICSSLSVVAKTRDANSGEWGRLLEWVDDDGIKHQWAMPLALLQGDSSDVRRELARLGLTISPSKTARDLLASYIQVFPVEERARCVDKLGWYKEVFVTANEAIGQSLSVAGSVEDWRNSISRLADGNSRLVFAISAAFAPSLANLVGEDSGGFHFRGASSSGKTTALKVAASVWGKPDSYIRLWRSTANGLEGLAALHNDGLLILNELSQMDPKEAGECAYLLANGQGKTRASRCGTARQSMRWSLLFLSAGEESLTSLMAKAGQRCNAGQEIRLADIEADAGAEMGLFEQLHDHINPAAMSLALKEAASQYHGAVGLAWLHKIVKHRAELIALLTNKIQHFVAKVTKPEHSGQIQRVARRFALVAMAGEIATHYELTGWTRGTACNPAEKCFNAWLKDFGEHGNREDRAILSQVRAFFEKEGASRFENENHPNSERLFNRAGFFHTDSEGFRVFMVLSEVYRKEICQGFEPKMVNKVLINAGWIVPGNDGKASQKRRIKGIGIPRCYIFTEKVWSDDYLEHHHHHH”: the “soluble on expression in E. coli” value is listed as “soluble”.
The value for “MNSIQIADETYVAADAARVSAAVADRCSWRRWWPDLRLQVTEDRADKGIRWTVTGALTGTMEIWLEPSMDGVLLHYFLHAEPTGVAAWQLARMNLARMTHHRRVAGKKMAFEVKTVLERSRPIGVSPVT” was “not soluble”; that for “MNSIWARLRLASSQLPIGGYSYSQGLEAALDNGWVRDAESARTWLVDQLQLNLARFEAPLLAGLLRAALIGDWAACDAASERHRASRETRELAQESRQMGFSLHQLLEALPELDAPGRAWLARQDPPNLAAAWAMAARAWRLDAEEALSAWFWSWLENQLAVLMKTLPLGQLAAQKLASSLLPELDRACAEALRRPAVEGSAAFGLALASMTHETQYSRLFRSLEHHHHHH” was “not soluble”; that for “MNSLPVAIIGGGPVGLAAAAHLAVRDVPFVLFEGKSEVGASILEWKHVSLFSPWKYNIDRAAKSLLEKESWKEPAGDRLPTGEQLVRDYLQPLAETKALKPYIYTNAPVQSIYRKGIDKIKDHNRENTPFIIRYKQDNDQKTLRARAVIDATGTWFSPNPIGAGGVPAIGEEEAKDSIYYGIPDVKGKDRSRYEGKTILVVGSGHSAIHTLLDLAQLKEAAPSTRILWAIRRNSPNGLFGGGQEDALPARGQLGLALEALLSKQKVELISSFEMEQIDRVEGRLSVVGVQNESPISLPLVDEIVANTGARPTVDYHRDIRYQLDSKLESVPALAPLIDPNIHSCGTVRPHGEKELRQPEKNFYIAGVKSYGRAPTFLLATGYEQVRSIVASLAGSKKEAERVELQLPKTGVCKSDFLAKRSCCLEHHHHHH” was “soluble”.
As to “MNSPLAPVGVFDSGVGGLTVARAIIDQLPDEDIVYVGDTGNGPYGPLTIPEIRAHALAIGDDLVGRGVKALVIACNSASSACLRDARERYQVPVVEVILPAVRRAVAATRNGRIGVIGTRATITSHAYQDAFAAARDTEITAVACPRFVDFVERGVTSGRQVLGLAQGYLEPLQRAEVDTLVLGCTHYPLLSGLIQLAMGENVTLVSSAEETAKEVVRVLTEIDLLRPHDAPPATRIFEATGDPEAFTKLAARFLGPVLGGVQPVHPSRIH”, the “soluble on expression in E. coli” value is recorded as “not soluble”.
The result for “MNSQTTKDIPCFRSYLPDALRLRFEDKLTIRAIAQRLGLSHSTIHTLFQRFLASGIAWPLPDSVSFAQLDAILYANRKKELTEPQIREGSWRKERRTSYSREFKVRLAKQALQPGAVVARIAREHDINNNLLFKWKSQYEDGLLSDDDIQECMPVPVALTDTPEPTRPVTNPFWRNKHDERPEGAPGNVPRCELHLKSGVVKLFDPLTPELLRALIREMKGGIRLEHHHHHH” reads “not soluble”.
The result for “MNTANFSAQQLQAERLLLLPSYILLKEGLVQDQAILVENGIFQDIGTHVELTKKYPDIVPVKLQDQLIMPGMIDGHHHLTQSFAKSLAYGEPSEIFKRIWVPLESNLNEQFVYLCTKLAALESLRGGFTTVCDAGTRSEIGMQLMVRALEETGLRCVLSLICNDGRAHSTLELRQNILENAQIFIKSYKQHKNVHPSLAISIPEVASDDMLYEVSKLCANSNIIFQVHVNEHLASVERSIIQQGMRPLEHLAKVGALGPQTLIAHATMLTPSELLLLQRTDTAVSYNPVASQWKGNAVASAHLMHELNIRFALGTDATRADGFRLLDAAEATQKLIFGIPTGDCSTGGGWMWLDHATTAGAEAVGLSQLTGSISIGKQADFLIIDLDTPEFCTSQDITWDMVRLCQRDQIQAVFVGGRICLWQGWPLDWDAKELMCRMKVLTKKAIEASPIQKLHPTAEQHRQLHGQTSQQQSVHI” reads “not soluble”; that for “MNTDFQNILKQLGKQAQKEAAEKQAAEKNKQKQEQDFDFSQAVGQLSPLKNRQQYYAPPDKTPIKVRPKDNRADEENYFYIGSTYNDPPASFSKNGQGKNDIQRLKNGYYPVVTDVDLHGYTQEEAQKVLNEFIAFTQKRGVCGEIIHGSGLGSKGYKPVLKNMTRNWLMQHPDVLAYAEPREGNDGCVRILLKRKLRQQD”, “not soluble”; that for “MNTGHHKVADTLIDFLHRQFPWVESKKIDFLSYCNELMEKMVSGAYLRWIRSHPASYHRVYKTFMYEESLRLEFVSFEPWLPYFEGKMKKMLEQERPDLIVCTHSFPSRILQQLKRKKVLAIPVVNVYTDFFMNSIWGKRFIDYHFVPHQEAKRELIVKHGIDERRIVVTGIPAAALEHHHHHH”, “soluble”.
The result for “MNTLGRFLRLTTFGESHGDVIGGVLDGMPSGIKIDYALLENEMKRRQGGRNVFITPRKEDDKVEITSGVFEDFSTGTPIGFLIHNQRARSKDYDNIKNLFRPSHADFTYFHKYGIRDFRGGGRSSARESAIRVAAGAFAKMLLREIGIVCESGIIEIGGIKAKNYDFNHALKSEIFALDEEQEEAQKTAIQNAIKNHDSIGGVALIRARSIKTNQKLPIGLGQGLYAKLDAKIAEAMMGLNGVKAVEIGKGVESSLLKGSEYNDLMDQKGFLSNRSGGVLGGMSNGEEIIVRVHFKPTPSIFQPQRTIDINGNECECLLKGRHDPCIAIRGSVVCESLLALVLADMVLLNLTSKIEYLKTIYNEN” reads “soluble”; that for “MNTQKPFENHLKSVDDLKTTYEEYRAGFIAFALEKNKRSTPYIERARALKVAASVAKTPKDLLYLEDIQDALLYASGISDKAKKFLTEDDKKESINNLIENFLEPAGEEFIDELIFRYLLFQGDSLGGTMRNIAGALAQQKLTRAIISALDIANIPYKWLDSRDKKYTNWMDKPEDDYELETFAKGISWTINGKHRTLMYNITVSLVKKNVDICLFNCEPEIYTPQKVHQQPEKYLLLGELKGGIDPAGADEHWKTANTALTRIRNKFSEKGLSPKTIFIGAAIEHSMAEEIWDQLQSGSLTNSANLTKTEQVGSLCRWIINI”, “soluble”.
With “MNTRNFSLPQLQNLPIEEARIVADALAVHATSRQIDSAASKLAALAEAGLKGDRQAYAAYQQLLYVLSLSDDVATAQTRRWLARAIYRVEERFMPAADLSRALSEEDFQKRLEQEIAAQSRERHPMSQYVFSGSASRAQLQVFLRHQWFRTFRLYRDAADLLVNLTDVDEAAALARYLYGELGEEDEKGSHPRLLAKLLEAIGLEADFQAVSTMPEEIAYLNNRARAFRHAEVGWGLAVFYITELVVPGNHEKLYRALLQAGLSEDQAEYYKVHISLVPPRAKREWQLIARRIPDVQFQNAFLTSLSQHFRVERAYYDAIWEEMQSVK”, the “soluble on expression in E. coli” value is “soluble”.
The value for “MNTVRWNIAVSPDVDQSVRMFIAAQGGGRKGDLSRFIEDAVRAYLFERAVE” was “soluble”; that for “MNVEQQYIDLFSQTEAMICKHSAEVLNAPRAAAFADFERLGFPTRKMEKYKYTDISKYFEPDYGLNLNRLQIPVNPYEVFKCDVPNMSTALYFVVNDAFYNKALPKTHLPEGVIFGSLKEVAAEHPELVKKYYGKLADTSKDGITAFNTAFAQDGVIFYVPKNVIVEKPIQLVNILRADVNFMVNRRVLIILEDGAQARLLICDHAMDNVNFLATQVIEVFAGENAVFDMYELEETHTSTVRISNLYVKQEANSNVLLNGMTLHNGTTRNTTEVLLAGEGAEINLCGMAIADKNQHVDNNTSIDHAVPNCTSNELFKYVLDDQSTGAFAGLVLVRPDAQHTNSQQTNRNLCATRDARMYTQPQLEIYADDVKCSHGATVGQLDENALFYMRARGIAEKEARLLLMFAFVNEVIDTIRLDALKDRLHLLVEKRFRGELNKCQGCAICK” was “not soluble”; that for “MNVERWAQALKEEYPRGLLGEREALVSLLVGKGLSHAEAVEVARALEAQGYAHFLPGERPRWFFSSRSLDLKALMRALDQEFPEFVGEGDEEEEALAFLAARLGDREVAREVLEAMRAAGYVERAYSPELARDRLFFRFPEALRLLG” was “soluble”.
The result for “MNVIYPLAVPKGRRLCCEVCEAPAERVCAACTVTYYCGVVHQKADWDSIHEKICQLLIPLRTSMPFYNSEEERQHGLQQLQQRQKYLIEFCYTIAQKYLFEGKHEDAVPAALQSLRFRVKLYGLSSVELVPAYLLLAEASLGLGRIVQAEEYLFQAQWTVLKSTDCSNATHSLLHRNLGLLYIAKKNYEEARYHLANDIYFASCAFGTEDIRTSGGYFHLANIFYDLKKLDLADTLYTKVSEIWHAYLNNHYQVLSQAHIQQMDLLGKLFENDTGLDEAQEAEAIRILTSILNIRESTSDKAPQKTIFVLKILVMLYYLMMNSSKAQEYGMRALSLAKEQQLDVHEQSTIQELLSLISTEDHPIT” reads “soluble”; that for “MNVLRPTLLTLACLLASPGFADDLPSLGDASSAIVSPQQEYQLGRAWLALLRSQVSQLNDPQLKDYVETSVYKLVETSQVNDRRLEFILINSPQLNAFAAPGGIIGVNGGLFLNAQTEGEYASVLAHELAHLSQRHFARGVEAQQRMQVPMMAALLAGIVIAAAGAGDAGIATIAGTQAAAIQEQRRFSRQNEQEADRIGILNLEKAGYDPRSMPTMFERLMRQYRFDAKPPEFLLTHPVTESRIADTRNRAEQARQGGTEDSLRYQLIRARVQLTYEESPGLAAKRFRAQLDENPKNDIARYGLAIAQIKGSQWNEARENLKPLLAKSPNDVTYNLAQIELDMANSRLPDAQTRVERMLNLYPGNYPLNQIRVDLLLKQNRPADAEKALEGLLKSRPDDPDVWYLVAETRGLSGNIIGLHQARAEYFALVGDYRQAIQQLDFAKRRAGSNFPLSSRIDARQREMMDQEQMVKDMMRLEHHHHHH”, “soluble”.
The value for “MNVSEALKGALPNFIPGLGTLYVDPSTLPEGPFLAYDRAGNLVKVVFMVPLKKLNESHKYVDIGTKTLRALGITRIDHVNLIPSGPHPGVSEPHYHIELVLVSVDQERKVLEGEPY” was “soluble”.
With “MNVSVNIKNVTKEYRIYRTNKERMKDALIPKHKNKTFFALDDISLKAYEGDVIGLVGINGSGKSTLSNIIGGSLSPTVGKVDRNGEVSVIAISAGLSGQLTGIENIEFKMLCMGFKRKEIKAMTPKIIEFSELGEFIYQPVKKYSSGMRAKLGFSINITVNPDILVIDEALSVGDQTFAQKCLDKIYEFKEQNKTIFFVSHNLGQVRQFCTKIAWIEGGKLKDYGELDDVLPKYEAFLNDFKKKSKAEQKEFRNKLDESRFVIK”, the “soluble on expression in E. coli” value is given as “not soluble”.
On to “MNWEQKSSMLKKKIERIKEIETTLWGNLEKCELCPRKCGVDRYRTTGICGLPARAKISNAVLHFGEEPPISGKTGAGTVFFSGCNMKCVYCQNMGFSQKGIGTEVEVEDLAEIFLILQKHGAKTLNLVTPTPHLPFIISALRIAIENGLNLPIVYNTSGYEDPEILRLLEGVVDIYLSDVRYSDNEASKKYSKTPDYWTVVQKAIVEMFRQVGIFDEEKMKGLIVRILVLPGNVVDYSEIFSFLSSLSTRIPLSIMNQYIPHFDAQKFPEISRKLNQNEYEKILELAERYGFTEGWYQSEEKERVTTRGLKEISEKLQFLRLKTHNSY”, for which the “soluble on expression in E. coli” value is on record as “not soluble”.
